T1: (His)6-RcsB (Escherichia coli, UniProt P0DMC7 1-216)
T1 sequence: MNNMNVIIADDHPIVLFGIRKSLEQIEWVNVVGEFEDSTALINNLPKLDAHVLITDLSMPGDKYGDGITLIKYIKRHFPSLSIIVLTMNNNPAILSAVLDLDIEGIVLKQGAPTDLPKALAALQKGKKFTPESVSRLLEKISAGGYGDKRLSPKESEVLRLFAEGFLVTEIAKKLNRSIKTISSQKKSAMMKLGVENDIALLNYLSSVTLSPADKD

T2: MBP-RcsB (Escherichia coli (MG1655 strain), UniProt P0DMC7 1-216)
T2 sequence: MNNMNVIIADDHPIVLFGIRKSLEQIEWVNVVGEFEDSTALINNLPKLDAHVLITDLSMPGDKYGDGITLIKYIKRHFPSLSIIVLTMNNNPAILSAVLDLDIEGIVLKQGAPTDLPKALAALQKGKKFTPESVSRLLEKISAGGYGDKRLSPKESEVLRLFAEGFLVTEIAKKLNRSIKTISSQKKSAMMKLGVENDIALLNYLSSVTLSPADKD

T3: (His)6-RcsB (Escherichia coli, UniProt P0DMC7 1-216)
T3 sequence: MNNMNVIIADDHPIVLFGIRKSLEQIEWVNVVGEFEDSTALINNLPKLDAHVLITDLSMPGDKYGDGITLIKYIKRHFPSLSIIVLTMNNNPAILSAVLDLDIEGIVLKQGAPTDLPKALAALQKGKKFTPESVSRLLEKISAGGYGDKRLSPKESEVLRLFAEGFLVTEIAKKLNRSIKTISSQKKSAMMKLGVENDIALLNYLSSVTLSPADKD


Tests used:
[1] = biological target: T1, (His)6-RcsB; assay: native gel or EMSA
[2] = biological target: T2, MBP-RcsB; assay: native gel or EMSA
[3] = biological target: the molecule itself
[4] = biological target: T3, (His)6-RcsB; assay: EMSA

Row | Binder | binding result [1] | binding result [2] | stoichiometry N [3] | binding result [4]
1 | MBP-GadE (natural protein) MIFLMTKDSFLLQGFWQLKDNHEMIKINSLSEIKKVGNKPFKVIIDTYHNHILDEEAIKFLEKLDAERIIVLAPYHISKLKAKAPIYFVSRKESIKNLLEITYGKHLPHKNSQLCFSHNQFKIMQLILKNKNESNITSTLNISQQTLKIQKFNIMYKLKLRRMSDIVTLGITSYF | binds | binds | 2 | –
2 | (His)6-GadE (natural protein) MIFLMTKDSFLLQGFWQLKDNHEMIKINSLSEIKKVGNKPFKVIIDTYHNHILDEEAIKFLEKLDAERIIVLAPYHISKLKAKAPIYFVSRKESIKNLLEITYGKHLPHKNSQLCFSHNQFKIMQLILKNKNESNITSTLNISQQTLKIQKFNIMYKLKLRRMSDIVTLGITSYF | binds | binds | – | –
3 | gadA promoter -101 to +24 (dsDNA) DNA 1: GTTTATATTATAAAAAGTCGTTTTTCTGCTTAGGATTTTGTTATTTAAATTAAGCCTGTAATGCCTTGCTTCCATTGCGGATAAATCCTACTTTTTTATTGCCTTCAAATAAATTTAAGGAGTTC DNA 2: GAACTCCTTAAATTTATTTGAAGGCAATAAAAAAGTAGGATTTATCCGCAATGGAAGCAAGGCATTACAGGCTTAATTTAAATAACAAAATCCTAAGCAGAAAAACGACTTTTTATAATATAAAC | – | – | – | binds

Source: paper PMC2887963 (Nucleic Acids Research, 2010)
